In series [1] the test system is TALEN right arm (pCLS9996) (artificial (Xanthomonas TALE?)). As to the kind of experiment: cell_activity. Particulars: paired with left arm P2; 153 of 153 galactose colonies of homozygous sup4-(CAG) diploid yeast show repeat contraction; >99% gene conversion in heterozygous ….
The subject of series [2] is TALEN left arm (pCLS16715) (artificial (Xanthomonas TALE?)). Briefly: cell_activity. Particulars: paired with right arm P1; 153 of 153 galactose colonies of homozygous sup4-(CAG) diploid yeast show repeat contraction; >99% gene conversion in heterozygous ….

“GCTGCTGCTGCTGCT (double strand) [right TALE target site in sup4-(CAG)]” registered an activity in series [1] of 100%.
As for “GTGATCCCCCCAGCA (double strand) [left TALE target site in sup4-(CAG)]”, the activity in series [2] amounted to 100%.

These data come from patent publication US20170029794.
